Measurements: the nanobody polyreactivity screen of Harvey et al. (2022)

Experiment: yeast display, Sf9 membrane polyspecificity reagent, FACS + sequencing; frameworks hold sequencing errors
Procedure, shortened: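 Using colony PCR, genes from sorted yeast display clones were amplified, then sequenced on MiSeq at 2 × 250 and filtered by CDR length. The clones had been stained with 10% biotinylated, detergent-solubilized Sf9 membrane reagent for 1 hour at 4 °C and sorted by FACS into low and high (top ~1%) gates on anti-HA and streptavidin fluorescence. Polyreactivity labels come from the gate of origin.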

Sequence	polyreactivity (PSR sort gate)
QVQLVESGGGLVQAGGSLRLSCASSGSTLYDNAKGWYRPAPGKERELVAAISKSGGRTYYADSVKGRFTISRDNAKNSVYLQMNSLKPEDTAVYYCNDVSSGGDYNYWGQGTQVTVSS	high polyreactivity
QVQLVESGGGLVQAGGSLRLSCASSGSTVSVNAMGWSRQAPGKESEFVASISKRGGSTYYADSVKGRFTISRDNAKNTVYLQMNSLKPEDTAVYYCARVLTGPGRLDYWGQGTQVTVSS	high polyreactivity
QVQLVESGGGLVQAGGSLRLSCASSGYTFIRYAIGLYRQAPGKERELVAAIRGTGTSTYYADSVKGRFTISRDNAKYTVYLQMNSLKTEDTAVYYCNKVAGRSPYTRYDYWGQGTHVTVSS	low polyreactivity
QVQLVESGGGLVQAGGSLRLSCASSGYTFTVYAKGWYRQAPGKERELVAAITWNGASTYYADSVKGRFTISRDNAKNTVYLQMNSLKPEDTAVYYCADPYYFYRDRYRLDYWGQGTQVTVSS	low polyreactivity
QVQLVESGGGLVQAGGSLRLSCATSGSIFPTYAMGSYRQAPGKERELVAAISAIVGGTYYADSVKGRFTISRDNAKNTVYLQMNSLKPEDTAVYYCNKTKFQGYDYWGQGTQVTVSS	low polyreactivity
QVQLVESGGGLVQAGGSLRLSCATSGSIFVFNAMGWYRQAPGKERELVAAIDTSDDITYYADSVKGRFTISRDNAKNTVYLQMISLKPEDTAVYYCNADTYGLVRYYIYHYEFDYWGQGTQVTVSS	high polyreactivity
QVQLVESGGGLVQAGGSLRLSCAVRRTLSFYAMGWYRQAPGKERELVATISRSGGSTYYADSVKGRFTISRDNAKNTVYLQMNSLKPEDTAVYYCAVRWKAHYWGPIYYYWGQGTQVTVSS	high polyreactivity
QVQLVESGGGLVQAGGSLRLSCAVSGRIFRRNVMGWYRQAPGKERELVAGISYSGDSTYYADSVKGRFTISRDNAKKTVYFQMNSLKPEDTAVYYCAAAVAHYRGMYYWGQGTQVTVSS	low polyreactivity
QVQLVESGGGLVQAGGSLRLSCAVSGRIFRRNVMGWYRQAPGKERELVAGISYSGDSTYYADSVKGRFTLSRDNAKITDYLQMNSLKPEDTAVYYCATRYTYSTDTGYDYWGQGTQVTVSS	low polyreactivity
QVQLVESGGGLVQAGGSLRLSCDASARTFYRNTMGWYRQAPGKERELVAAITRSGGSTYYADSVKGRFTISRDNAKNTVYLQINRLKPEDTAVYYCAASRTYYAPYGYWGQGTQVTVSS	high polyreactivity
QVQLVESGGGLVQAGGSLRLSCDASGFIIRRNAMGWYRQAPGKEREFVAAITWSGGSTYYADSVKGRFTISRDNAKNTVYLQMYSLKPEDTAVYYCAATYSQYWYTQYLNSYPGYDYWRQGTQVTVSS	low polyreactivity
QVQLVESGGGLVQAGGSLRLSCDASGFILSSNAMGWYRQAPGKERELVAAISSSGRTYYTDSVKGRFTISRDNAKNTVYLQMNSLKPEDTAVYYCAAGGYYYAIGYWGQGTQVTLSS	high polyreactivity
QVQLVESGGGLVQAGGSLRLSCDASGFTFGENAMGWYRQAPGNERELVAAISWSGTYTSYADSVKGRFTLSRDNAKNTVYLQMNSLKPEDTAVYYCATGCYAYVYPFDYWGQGTLVTVSS	low polyreactivity
QVQLVESGGGLVQAGGSLRLSCDASGGIFFLYAMGWYRQAPGKERELVAAITNDGRTYYADSVKGRFTISRDNAKYTVYLQMNSLKPEDTAVYYCDAAALISVGDLVIYEDDYWGQGTQVTVSS	low polyreactivity
QVQLVESGGGLVQAGGSLRLSCDASGIIFKYNAMGWYRQAPGKERELVAAITRRGGITYYADSVKGRFTISRDNAKNTVYLQMNSLKPEDTAVYYCAADLVYYHYYPWFYYWGQGTQVTVSS	high polyreactivity
QVQLVESGGGLVQAGGSLRLSCDASGIIFNTYAMGWYRQAPGKERELVAAISSSGGRTYYADSVKGRFTISRDYAKNTVYLQMNSLKPEDTAVYFCAADYRGGIRYYRGAAYNYWGQGTQVTVSS	high polyreactivity

Sequence	polyreactivity (PSR sort gate)
QVQLVESGGGLVQAGGSLRLSCDASGITFGNYAMGWYRPAPGKDRELVAAITGSGGRTYYADSVKGRFTISRDNAKNTVYLQMNSLKPEDTAVYYCNRRQYGRKKQYDYWGQGTQVTVSS	high polyreactivity
QVQLVESGGGLVQAGGSLRLSCDASGLIFYDNMGWYRQAPGKERELVAAISSSGGSTSYADSVKGRFTISRDNAKNTVYLQMNSLKPEDTAVYYCAAELGYIGSYYWIYYYWGQGTQGTVSS	low polyreactivity
QVQLVESGGGLVQAGGSLRLSCDASGLILGINSMGWYRQAPGKERELVAAISSSGGRTSYADSVKGRFTISRDNAKNTVYLQMNSLKPEDTAVYYCAKRRTTYSHYDYWGQGTQVTVSS	low polyreactivity
QVQLVESGGGLVQAGGSLRLSCDASGNIFKSYVMGWYRQAPGKERELVAAITWSGGSTYYADSVKGRFTISRDNAKNTVYLQMNSLKPEDTAVYYCAAYPRRYRTTYDYWGQGTQVTVSS	high polyreactivity
QVQLVESGGGLVQAGGSLRLSCDASGNIFYPNAMGLYRQAPGKERELVAAISSSGGSTYYADSVKGRFTISRDNAKNTVYLQMNSLKPEDTAVYYFAKDRSYAYYLWPYPTGYDYWGQGTQVTVSS	low polyreactivity
QVQLVESGGGLVQAGGSLRLSCDASGNTFHTNAMGWYRQAPGKERELVAAITGGGSTYYADSVKGRFTISRDNAKKTVYLQMNSLKPEDTAVYYCNTDVPYGLDVSDTIDYFYWGQGTKVTVSS	low polyreactivity
QVQLVESGGGLVQAGGSLRLSCDASGRIFHIYAMGWYREAPGKERELVASISWSGDSTYYADSVKGRFTISRDNAKNTVYLQINSLKPEDTAVYYFAAEGEETEGYDYDYWGQGTQVTVSS	low polyreactivity
QVQLVESGGGLVQAGGSLRLSCDASGRIFQYNAMGWSRQAPGKLRELVAAITVGGSTNYADSVTGRFTISRDNAKNTVYLQKNSLKPEDTAVSYCNKAWSSSWQVTYGICGQGTQVTVSS	high polyreactivity
QVQLVESGGGLVQAGGSLRLSCDASGRIFYRYTMGWYRQAPGKERELVAAITDDSSTDYADSVKGRFTISRDNAKNTVYLQMNSLKPEDTAVYYCNADWYWKYDYWGQGTQVTVSS	low polyreactivity
QVQLVESGGGLVQAGGSLRLSCDASGRIIQQYAMGWYRQAHGKERELVDAISRGGSTYYADSVKGRFTISRDNAKNTVYLQMNSLKPEDTAVYYCAVRSRRGLKYDYWGQGTQVTVSS	high polyreactivity
QVQLVESGGGLVQAGGSLRLSCDASGRTFFYNAMGLYRQAPGKERELVAAISKNGGNTYYADSVKGRFTISRDNAKNTVYLQMNSLKPEDTAVYYCAARQSRTGPDRNDYWGQGTQVTVSS	high polyreactivity
QVQLVESGGGLVQAGGSLRLSCDASGRTFKQNAMGWYRQAPGKERELVATIRNGVNTNYEDSVKGRFTISRDNAKNTVYLQMNSLKPEDTAVYYCAARYWQAHAFQGNTGYSWQYGYWGQGTQVTVSS	high polyreactivity
QVQLVESGGGLVQAGGSLRLSCDASGRTFVRYAMGWYRQAPGKERELVARITSRGTSTYYADSVKGRFTISRDNAKNTVYLQMNSLKPEDTAVYYCNKVRTFRDKSRYDYWGQGTQVTVSS	low polyreactivity
QVQLVESGGGLVQAGGSLRLSCDASGRTIRHNAMGWYRQAPGKERELVAAISKRGGRTYYADSVKGRFTISRDNAKNTVYLQMNSLKPEDTAVYYCATRSSGYSLGDYWGQGTQVTVSS	high polyreactivity
QVQLVESGGGLVQAGGSLRLSCDASGSIFEYYAMGWYRQAPGKERELVAAIRVSDVNTYYADSVKGRFTISRDNAKNTVYFQMNSLKPEDTAVYYCANAYKGYSDFDYWGQGTQVTVSS	high polyreactivity
